Laboratory results as given in patent US20090048117A1 (Harvard, published 2009).

T1: NFATc expressed from an expression construct
T1 sequence (O95644 1-943, species assumed, looked up): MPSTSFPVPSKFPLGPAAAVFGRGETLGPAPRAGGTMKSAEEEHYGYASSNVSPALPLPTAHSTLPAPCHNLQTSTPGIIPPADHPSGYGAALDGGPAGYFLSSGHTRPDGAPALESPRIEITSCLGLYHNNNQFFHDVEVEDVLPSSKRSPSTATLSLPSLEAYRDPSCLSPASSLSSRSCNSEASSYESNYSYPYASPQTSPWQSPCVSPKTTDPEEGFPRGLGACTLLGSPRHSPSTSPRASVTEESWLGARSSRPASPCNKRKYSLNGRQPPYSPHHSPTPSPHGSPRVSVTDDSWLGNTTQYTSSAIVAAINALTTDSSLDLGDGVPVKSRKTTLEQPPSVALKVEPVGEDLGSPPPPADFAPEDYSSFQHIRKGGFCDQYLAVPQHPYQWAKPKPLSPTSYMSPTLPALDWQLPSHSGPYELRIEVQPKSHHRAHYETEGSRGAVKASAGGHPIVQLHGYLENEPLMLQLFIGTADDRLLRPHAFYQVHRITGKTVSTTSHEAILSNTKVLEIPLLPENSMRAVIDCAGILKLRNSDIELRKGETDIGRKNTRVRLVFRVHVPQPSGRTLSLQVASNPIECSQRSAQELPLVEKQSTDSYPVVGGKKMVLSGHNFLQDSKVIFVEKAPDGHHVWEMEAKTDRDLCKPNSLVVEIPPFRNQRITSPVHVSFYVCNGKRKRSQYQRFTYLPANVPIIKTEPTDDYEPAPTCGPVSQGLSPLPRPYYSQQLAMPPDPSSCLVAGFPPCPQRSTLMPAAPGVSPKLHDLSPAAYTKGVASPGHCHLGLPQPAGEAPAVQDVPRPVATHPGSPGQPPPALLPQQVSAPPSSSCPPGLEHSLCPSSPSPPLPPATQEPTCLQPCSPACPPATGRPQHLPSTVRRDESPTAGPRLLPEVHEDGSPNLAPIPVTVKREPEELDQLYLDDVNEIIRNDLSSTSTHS

T2: NFAT3 expressed from an expression construct
T2 sequence (Q14934 1-902, species assumed, looked up): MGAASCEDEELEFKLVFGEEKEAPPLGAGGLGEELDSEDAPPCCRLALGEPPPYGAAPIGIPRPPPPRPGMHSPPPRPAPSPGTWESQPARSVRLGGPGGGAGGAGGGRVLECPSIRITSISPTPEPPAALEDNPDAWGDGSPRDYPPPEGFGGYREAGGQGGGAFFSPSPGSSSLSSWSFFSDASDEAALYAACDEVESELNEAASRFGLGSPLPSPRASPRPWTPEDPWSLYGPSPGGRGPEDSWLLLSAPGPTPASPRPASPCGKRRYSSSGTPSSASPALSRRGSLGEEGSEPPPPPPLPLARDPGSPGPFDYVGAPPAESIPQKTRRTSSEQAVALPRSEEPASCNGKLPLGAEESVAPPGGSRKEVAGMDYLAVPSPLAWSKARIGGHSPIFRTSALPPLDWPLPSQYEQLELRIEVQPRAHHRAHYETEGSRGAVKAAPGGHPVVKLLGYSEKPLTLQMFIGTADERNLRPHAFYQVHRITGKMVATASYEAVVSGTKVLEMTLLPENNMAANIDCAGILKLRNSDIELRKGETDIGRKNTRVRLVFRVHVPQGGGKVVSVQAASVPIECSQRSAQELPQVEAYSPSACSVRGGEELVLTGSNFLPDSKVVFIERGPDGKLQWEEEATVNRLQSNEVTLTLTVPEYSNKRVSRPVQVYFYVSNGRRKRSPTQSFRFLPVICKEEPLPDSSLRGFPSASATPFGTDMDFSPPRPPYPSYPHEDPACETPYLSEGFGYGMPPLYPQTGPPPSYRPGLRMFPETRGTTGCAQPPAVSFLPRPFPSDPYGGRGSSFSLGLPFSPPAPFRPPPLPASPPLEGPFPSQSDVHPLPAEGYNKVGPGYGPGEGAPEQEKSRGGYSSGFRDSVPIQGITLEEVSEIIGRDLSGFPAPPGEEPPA

T3: NFAT4 expressed from an expression construct
T3 sequence (Q12968 2-1075, species assumed, looked up): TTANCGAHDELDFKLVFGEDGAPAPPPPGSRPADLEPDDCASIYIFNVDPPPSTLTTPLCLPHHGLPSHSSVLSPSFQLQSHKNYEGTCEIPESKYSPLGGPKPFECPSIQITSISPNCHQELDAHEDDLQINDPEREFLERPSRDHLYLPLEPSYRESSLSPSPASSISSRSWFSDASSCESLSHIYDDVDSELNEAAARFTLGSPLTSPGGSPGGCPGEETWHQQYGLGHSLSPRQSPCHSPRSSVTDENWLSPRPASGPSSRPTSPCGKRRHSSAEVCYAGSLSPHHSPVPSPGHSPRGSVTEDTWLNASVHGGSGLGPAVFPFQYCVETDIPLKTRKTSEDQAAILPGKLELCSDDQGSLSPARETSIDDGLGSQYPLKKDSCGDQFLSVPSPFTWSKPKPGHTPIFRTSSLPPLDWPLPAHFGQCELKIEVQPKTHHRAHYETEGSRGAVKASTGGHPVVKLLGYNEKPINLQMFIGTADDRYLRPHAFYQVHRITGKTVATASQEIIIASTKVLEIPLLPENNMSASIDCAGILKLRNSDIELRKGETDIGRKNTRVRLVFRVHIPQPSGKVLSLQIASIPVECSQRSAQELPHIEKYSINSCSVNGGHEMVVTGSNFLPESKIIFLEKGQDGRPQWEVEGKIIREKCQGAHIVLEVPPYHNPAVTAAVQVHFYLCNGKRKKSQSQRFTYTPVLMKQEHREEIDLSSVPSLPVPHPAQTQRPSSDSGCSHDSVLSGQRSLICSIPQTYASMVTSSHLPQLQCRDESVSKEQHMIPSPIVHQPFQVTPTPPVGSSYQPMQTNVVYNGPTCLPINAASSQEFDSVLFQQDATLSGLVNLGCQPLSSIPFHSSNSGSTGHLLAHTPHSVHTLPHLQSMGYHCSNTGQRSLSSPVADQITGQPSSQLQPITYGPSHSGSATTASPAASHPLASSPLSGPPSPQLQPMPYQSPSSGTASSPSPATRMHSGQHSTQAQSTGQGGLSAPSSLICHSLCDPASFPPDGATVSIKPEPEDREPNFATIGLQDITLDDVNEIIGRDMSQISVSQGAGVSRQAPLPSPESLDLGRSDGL

T4: CARM1 of Jurkat cell lysates (human, UniProt Q86X55 2-608, limits assumed)
T4 sequence (looked up): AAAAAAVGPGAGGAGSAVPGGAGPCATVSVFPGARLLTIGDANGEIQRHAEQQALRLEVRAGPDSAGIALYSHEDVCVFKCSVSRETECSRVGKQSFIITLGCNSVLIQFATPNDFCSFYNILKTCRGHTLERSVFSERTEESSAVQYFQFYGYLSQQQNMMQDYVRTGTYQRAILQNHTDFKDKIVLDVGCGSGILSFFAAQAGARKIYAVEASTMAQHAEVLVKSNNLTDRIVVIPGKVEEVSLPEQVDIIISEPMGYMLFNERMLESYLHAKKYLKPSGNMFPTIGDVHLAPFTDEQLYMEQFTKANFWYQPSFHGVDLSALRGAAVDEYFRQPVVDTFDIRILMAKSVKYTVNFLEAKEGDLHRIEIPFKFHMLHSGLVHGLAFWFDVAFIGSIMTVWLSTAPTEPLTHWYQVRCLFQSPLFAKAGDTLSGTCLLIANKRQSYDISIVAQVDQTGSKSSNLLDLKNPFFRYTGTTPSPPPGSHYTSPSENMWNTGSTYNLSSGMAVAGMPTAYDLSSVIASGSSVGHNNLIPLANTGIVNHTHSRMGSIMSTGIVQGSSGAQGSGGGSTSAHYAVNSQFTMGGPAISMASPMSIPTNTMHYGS


Key:
[1] = target: T1, NFATc expressed from an expression …; assay: cell-based or functional assay
[2] = target: T2, NFAT3 expressed from an expression …; assay: cell-based or functional assay
[3] = target: T3, NFAT4 expressed from an expression …; assay: cell-based or functional assay
[4] = target: T4, CARM1 of Jurkat cell lysates; assay: GST pull-down of Jurkat cell lysates, immunoblot with a polyclonal CARM1 antibody
Protocol: FIGS. 16A-16C depict the interaction of NIP45 and PRMT. (A) Jurkat cell lysates were used in pulldown assays with 25 μg of recombinant GST, GST-NIP45, and GST-ΔN-NIP45. The presence of PRMT1 or CARM1 in pulldown samples was determined by immunoblotting with a monoclonal PRMT1 antibody and a polyclonal CARM1 antibody. PVDF membranes were reprobed with anti-GST antibodies to determine equal amount of recombinant proteins in pulldown samples. (B) Flag-NIP45or Flag-ΔN-NIP45 or vector control and HA-PRMT1 expression constructs were transfected in 293 cells. Lysates were immunoprecipitated with anti-Flag agarose and interaction with PRMT1 was determined by probing immunoblots with a monoclonal anti-HA antibody. Equal loading was assessed by probing with an anti-Flag antibody. (C) Lysates from unstimulated or 60 min PMA/ionomycin stimulated day 7 Th1 or Th2 differentiation cultures were immunoprecipitated with a monoclonal PRMT1 antibody or appropriate isotype control. Interaction with endogenous NIP45 was determined by immunoblotting PRMT1 antibody to determine equal loading.
Because PRMT1 methylates NIP45, their interaction was examined more closely. To determine specificity of interaction GST-NIP45 and GST-ΔN-NIP45 fusion proteins were used in pulldown assays of Jurkat cell lysates. […]

Binder	transactivation of a 3X NFAT-CAT reporter in HepG2 cells [1]	transactivation of a 3X NFAT-CAT reporter in HepG2 cells [2]	transactivation of a 3X NFAT-CAT reporter in HepG2 cells [3]	binding result [4]
NIP45 expressed from a NIP45 expression plasmid (other) MAEPLRGRGPRSRGGRGARRARGARGRCPRARQSPARLIPDTVLVDLVSDSDEEVLEVADPVEVPVARLPAPAKPEQDSDSDSEGAAEGPAGAPRTLVRRRRRRLLDPGEAPVVPVYSGKVQSSLNLIPDNSSLLKLCPSEPEDEADLTNSGSSPSEDDALPSGSPWRKKLRKKCEKEEKKMEEFPDQDISPLPQPSSRNKSRKHTEALQKLREVNKRLQDLRSCLSPKQHQSPALQSTDDEVVLVEGPVLPQSSRLFTLKIRCRADLVRLPVRMSEPLQNVVDHMANHLGVSPNRILLLFGESELSPTATPSTLKLGVADIIDCVVLASSSEATETSQELRLRVQGKEKHQMLEISLSPDSPLKVLMSHYEEAMGLSGHKLSFFFDGTKLSGKELPADLGLESGDLIEVWG	4 fold	3 fold	2 fold	
GST-NIP45 fusion protein (bacterially expressed, full length NIP45) (other, also called recombinant GST-NIP45; recombinant full-length NIP45; not shown: glutathione-S-transferase (GST) fusion partner) MAEPLRGRGPRSRGGRGARRARGARGRCPRARQSPARLIPDTVLVDLVSDSDEEVLEVADPVEVPVARLPAPAKPEQDSDSDSEGAAEGPAGAPRTLVRRRRRRLLDPGEAPVVPVYSGKVQSSLNLIPDNSSLLKLCPSEPEDEADLTNSGSSPSEDDALPSGSPWRKKLRKKCEKEEKKMEEFPDQDISPLPQPSSRNKSRKHTEALQKLREVNKRLQDLRSCLSPKQHQSPALQSTDDEVVLVEGPVLPQSSRLFTLKIRCRADLVRLPVRMSEPLQNVVDHMANHLGVSPNRILLLFGESELSPTATPSTLKLGVADIIDCVVLASSSEATETSQELRLRVQGKEKHQMLEISLSPDSPLKVLMSHYEEAMGLSGHKLSFFFDGTKLSGKELPADLGLESGDLIEVWG				no binding (tested: 25 µg of recombinant protein)
